Assay results from patent US20140242093A1, “METHODS AND COMPOSITIONS FOR MODULATING THE INNATE IMMUNE RESPONSE AND/OR MYOGENESIS IN A MAMMALIAN SUBJECT” (FRED HUTCHINSON CANCER RESEARCH CENTER, priority 2011, published 2014).

Test system: control human primary myoblasts
Test: Expression microarray of primary myoblasts transduced with lentivirus carrying DUX4-fl, DUX4-s or GFP
Method: Primary human myoblasts were collected and cultured as previously described (Snider et al., 2010). Primary myoblasts were maintained at or below 70% confluency for proliferation. For differentiation, cells were allowed to reach 95-100% confluency in growth medium. Once confluency was reached, the cells were changed to differentiation medium (F10 media supplemented with 1% horse serum, 10 μg/mL insulin, and 10 μg/mL transferrin, penicillin/streptomycin) and maintained for 4 days. Human RD cells were grown in DMEM in 10% bovine calf serum (Hyclone) and penicillin/streptomycin. The primary myoblasts were transduced with lentivirus carrying DUX-fl, DUX4- or GFP (MOI=15).
Expression microarrays were performed on the transduced cells at 24 hours after transduction as follows. […] Samples were analyzed by Illumina Human Whole Genome microarrays. Probe intensities were corrected, normalized, and summarized by the Lumi package of Bioconductor (Du et al., 2008). Differentially expressed genes were identified by the LIMMA package of Bioconductor (Wettenhall and Smyth, 2004). Gene set enrichment analysis (GSEA) was performed using the Bioconductor GOstats package (Falcon and Gentleman, 2007).

B1: DUX4-s: short splice form of DUX4 (SEQ ID NO:112), keeps the double-homeobox domains, lacks the C-terminal activation domain (protein, listed as Homo sapiens)
chain: MALPTPSDSTLPAEARGRGRRRRLVWTPSQSEALRACFERNPYPGIATRERLAQAIGIPEPRVQIWFQNERSRQLRQHRRESRPWPGRRGPPEGRRKRTAVTGSQTALLLRAFEKDRFPGIAAREELARETGLPESRIQIWFQNRRARHPGQGGRAPAQV
C1orf55 expression fc (Refseq NM_152608.3): −0.3632 | MLKL expression fc (Refseq NM_152649.1, cultured human skeletal muscle): 1.457 | ZSCAN4 expression fc (Refseq NM_152677.1): 0.04366 | SAMD9L expression fc (Refseq NM_152703.2, cultured human skeletal muscle): 1.257 | VWCE expression fc (Refseq NM_152718.2, cultured human skeletal muscle): −0.1213 | fc of D2HGDH (expression array) (Refseq NM_152783.3): −0.3982 | FAS fc (Refseq NM_152877.1): 0.1452 | APCDD1 expression fc (Refseq NM_153000.3, cultured human skeletal muscle): −0.4301 | PMP22 fc (Refseq NM_153321.1): 0.2667 | SLC2A14 expression fc (Refseq NM_153449.2): 0.2472 | CYBASC3 expression fc (Refseq NM_153611.3, cultured human skeletal muscle): −0.4218 | GPBAR1 expression fc (Refseq NM_170699.2): −0.1298 | NLRX1 fc (Refseq NM_170722.1): −0.1409 | fc of HSCB (expression array) (Refseq NM_172002.3): 0.1735 | fc of ZNF650 (expression array) (Refseq NM_172070.2): 0.6904 | fc of IL4I1 (expression array) (Refseq NM_172374.1): 1.769 | KLF17 expression fc (Refseq NM_173484.3): 0.08045 | fc of RCOR2 (expression array) (Refseq NM_173587.2): −0.1949 | fc of DCBLD1 (expression array) (Refseq NM_173674.1): 1.594 | WARS expression fc (Refseq NM_173701.1, cultured human skeletal muscle): 1.715 | fc of C3orf38 (expression array) (Refseq NM_173824.2): 1.033 | fc of UBR1 (expression array) (Refseq NM_174916.1): 1.111 | fc of C4orf34 (expression array) (Refseq NM_174921.1): 0.6119 | FRMD3 fc (Refseq NM_174938.3): −0.2907 | MT1E expression fc (Refseq NM_175617.3, cultured human skeletal muscle): 0.1289 | TXLNA fc (Refseq NM_175852.3): −0.1621 | MT1M expression fc (Refseq NM_176870.2, cultured human skeletal muscle): 1.185 | PPAP2A fc (Refseq NM_176895.1): 0.545 | CSE1L expression fc (Refseq NM_177436.1): 0.07287 | PPM1B expression fc (Refseq NM_177968.2): −0.0342 | fc of STARD13 (expression array) (Refseq NM_178006.1): −0.8963 | RILPL1 fc (Refseq NM_178314.2): 0.6233 | HIF1A fc (Refseq NM_181054.1): 0.4209 | ID1 fc (Refseq NM_181353.1): 0.7329 | C1QTNF3 expression fc (Refseq NM_181435.4): −0.02264 | PPP2R2B expression fc (Refseq NM_181677.1): −0.1091 | PPP2R2C fc (Refseq NM_181876.2): −0.2308 | BCL9L fc (Refseq NM_182557.2): 0.7326 | fc of IRF2BP2 (expression array) (Refseq NM_182972.2): −0.806 | fc of TRIM69 (expression array) (Refseq NM_182985.3): 0.2639 | fc of TRIM55 (expression array) (Refseq NM_184086.1): 0.1967 | RBM39 expression fc (Refseq NM_184234.1): 0.263 | INO80C expression fc (Refseq NM_194281.3): −0.1128 | SPTY2D1 expression fc (Refseq NM_194285.2): −0.2916 | fc of RNASE4 (expression array) (Refseq NM_194431.1): −0.1107 | BID fc (Refseq NM_197966.1): −0.1675 | fc of MZF1 (expression array) (Refseq NM_198055.1): 0.05558 | fc of ARSK (expression array) (Refseq NM_198150.1): 1.03 | fc of SRC (expression array) (Refseq NM_198291.1): 0.0569 | fc of APOOL (expression array) (Refseq NM_198450.3): 1.369 | DENND2C expression fc (Refseq NM_198459.2): −0.2684 | TPRX1 expression fc (Refseq NM_198479.2): −0.05019 | AGRN expression fc (Refseq NM_198576.2, cultured human skeletal muscle): 0.3808 | C1QTNF1 expression fc (Refseq NM_198594.1, cultured human skeletal muscle): 0.7696 | fc of SERPINB8 (expression array) (Refseq NM_198833.1): 1.016 | SEMA4B expression fc (Refseq NM_198925.1, cultured human skeletal muscle): 0.1542 | C9orf169 expression fc (Refseq NM_199001.1, cultured human skeletal muscle): −0.05213 | T1560 expression fc (Refseq NM_199048.1): 0.02012 | XAF1 expression fc (Refseq NM_199139.1, cultured human skeletal muscle): 0.6222 | SAA1 expression fc (Refseq NM_199161.1, cultured human skeletal muscle): 0.2569 | C20orf117 fc (Refseq NM_199181.2): −0.5322 | fc of TMEM189-UBE2V1 (expression array) (Refseq NM_199203.1): 0.06378 | DGKA expression fc (Refseq NM_201554.1, cultured human skeletal muscle): 0.1014 | fc of ZMYM3 (expression array) (Refseq NM_201599.1): −0.01297 | FBXO33 expression fc (Refseq NM_203301.1): 0.2162 | SYNJ1 expression fc (Refseq NM_203446.1): −0.07515 | fc of CMPK2 (expression array) (Refseq NM_207315.2): 1.351 | CYP4V2 fc (Refseq NM_207352.2): −0.4989 | fc of C15orf52 (expression array) (Refseq NM_207380.1): −0.2956 | FLJ45337 expression fc (Refseq NM_207465.1): −0.2461 | ATP2B1 fc (Refseq NM_001001323.1): −0.7039 | FLJ45139 expression fc (Refseq NM_001001692.1): 0.1009 | OR2T34 expression fc (Refseq NM_001001821.1): −0.05408 | fc of GPM6B (expression array) (Refseq NM_001001995.1): −1.119 | NT5C1B expression fc (Refseq NM_001002006.1): −0.03655 | fc of NT5C3 (expression array) (Refseq NM_001002010.1): 1.882 | RAB11FIP1 expression fc (Refseq NM_001002814.1): −0.4765 | fc of LEPR (expression array) (Refseq NM_001003679.1): −0.5494 | ZNF705A expression fc (Refseq NM_001004328.1): −0.06059 | HIST2H3A expression fc (Refseq NM_001005464.2): −0.05203 | GBA fc (Refseq NM_001005742.1): 0.289 | SIAH1 expression fc (Refseq NM_001006610.1): −0.0793 | OPTN fc (Refseq NM_001008213.1): −0.5727 | SLC7A2 expression fc (Refseq NM_001008539.2, cultured human skeletal muscle): −0.1055 | CXCR4 expression fc (Refseq NM_001008540.1): −0.0521 | fc of CLSTN1 (expression array) (Refseq NM_001009566.1): −0.2768 | PRAMEF4 expression fc (Refseq NM_001009611.1): 0.0423 | C6orf191 expression fc (Refseq NM_001010876.1): −0.05752 | PRAMEF6 expression fc (Refseq NM_001010889.2): −0.06189 | PRAMEF9 expression fc (Refseq NM_001010890.1): −0.07265 | PRAMEF8 expression fc (Refseq NM_001012276.1): 0.1662 | PRAMEF7 expression fc (Refseq NM_001012277.1): 0.106 | fc of MYPOP (expression array) (Refseq NM_001012643.2): −0.03552 | PRAMEF5 expression fc (Refseq NM_001013407.1): 0.1054 | HNRNPCL1 expression fc (Refseq NM_001013631.1): −0.1035 | RFPL4B expression fc (Refseq NM_001013734.2): −0.1031 | ODF3B fc (Refseq NM_001014440.2): 0.4296 | DNAJC25 expression fc (Refseq NM_001015882.2): −0.5072 | KCNK2 fc (Refseq NM_001017425.2): 0.2137 | CCDC58 expression fc (Refseq NM_001017928.2): 0.07678 | fc of ATP6AP1L (expression array) (Refseq NM_001017971.1): 0.02803 | SH3PXD2B fc (Refseq NM_001017995.1): −0.01555 | ZBTB16 expression fc (Refseq NM_001018011.1, cultured human skeletal muscle): 0.4921 | fc of SERBP1 (expression array) (Refseq NM_001018069.1): −1.179 | SOD2 expression fc (Refseq NM_001024466.1, cultured human skeletal muscle): 1.532 | fc of RUNX2 (expression array) (Refseq NM_001024630.2): 0.05524 | CLK1 expression fc (Refseq NM_001024646.1): 0.0752 | fc of TGFBR2 (expression array) (Refseq NM_001024847.1): 0.1743 | TSPAN4 fc (Refseq NM_001025235.1): −0.1169 | fc of RFX5 (expression array) (Refseq NM_001025603.1): −0.06023 | PSRC1 fc (Refseq NM_001032290.1): −0.4871 | OAS1 expression fc (Refseq NM_001032409.1, cultured human skeletal muscle): 1.453 | ENTPD8 expression fc (Refseq NM_001033113.1): 0.03523 | RHOT1 fc (Refseq NM_001033566.1): 0.3308 | CYFIP2 fc (Refseq NM_001037333.1): −0.633 | fc of PHYH (expression array) (Refseq NM_001037537.1): −0.5757 | fc of EFEMP1 (expression array) (Refseq NM_001039348.1): −0.2077 | PRAMEF10 expression fc (Refseq NM_001039361.1): 0.008756 | ETNK1 expression fc (Refseq NM_001039481.1): 0.06444 | LOC440053 expression fc (Refseq NM_001039615.1): −0.09982 | CBLN3 fc (Refseq NM_001039771.2): 0.1543 | HEY1 expression fc (Refseq NM_001040708.1): −0.04271 | fc of UHRF1 (expression array) (Refseq NM_001048201.1): −1.034 | DBNDD2 expression fc (Refseq NM_001048223.1): 0.2257 | NCOR2 fc (Refseq NM_001077261.1): −0.2241 | fc of NFKB2 (expression array) (Refseq NM_001077493.1): 0.2202 | fc of SLC29A1 (expression array) (Refseq NM_001078174.1): −1.034 | DYNC2H1 expression fc (Refseq NM_001080463.1): 0.04558 | PRAMEF12 expression fc (Refseq NM_001080830.1): 0.1269 | FRG2B expression fc (Refseq NM_001080998.1): 0.1315 | DEFB103A expression fc (Refseq NM_001081551.2): 0.06581 | CPSF4 fc (Refseq NM_001081559.1): −0.2674 | fc of GPD2 (expression array) (Refseq NM_001083112.1): 1.197 | fc of GPR1 (expression array) (Refseq NM_001098199.1): 0.2201 | HLA-F expression fc (Refseq NM_001098479.1, cultured human skeletal muscle): 0.9368 | RFPL3 expression fc (Refseq NM_001098535.1): −0.06033 | PRR4 expression fc (Refseq NM_001098538.1): 0.1606 | FAM156B fc (Refseq NM_001099684.1): −0.1712
